Measurements reported in patent US20230192818A1 (TWIST BIOSCIENCE, published 2023).
Read-outs that look alike come from different tables or passages of the source.

Columns and labels:
SARS-CoV-2 S1 (Acro) [1] = target: T1, SARS-CoV-2 S1 (Acro) (SARS-CoV-2, UniProt P0DTC2 16-685); assay: SPR (Carterra)
T1 construct: also called Acro S1

SARS-CoV-2 S1 (Acro) [2] = target: T1, SARS-CoV-2 S1 (Acro); assay: SPR (Carterra); remark: listed apart in the source

Row | Binder | Kd (SARS-CoV-2 S1 (Acro) [1]) [nM] | Kd (SARS-CoV-2 S1 (Acro) [2]) [nM]
1 | 3-31 (Fc fusion, also called Antibody 3-31) EVQLVESGGGLVQPGGSLRLSCAASGSTFSINAMGWFRQAPGKEREFVAGITSSGGYTNYADSVKGRFTISADNSKNTAYLQMNSLKPEDTAVYYCAADGVPEYSDYASGPVWGQGTLVTVSS | 21 | 21
2 | 15-3 (Fc fusion, also called Antibody 15-3; Antibody 15 parent) EVQLVESGGGLVQPGGSLRLSCAASGFTFSPSWMGWFRQAPGKEREFVATINEYGGRNYADSVKGRFTISADNSKNTAYLQMNSLKPEDTAVYYCARVDRDFDYWGQGTLVTVSS | – | 31.5
